Assay results as given in patent US20070292409A1 (University of California, published 2007).

Experiments:
[1] = biological target: G protein-q/11 α-subunit (Gαq/11), endogenous protein of 3T3-L1 adipocytes (UniProt P21279)
[2] = biological target: T1, insulin receptor, endogenous protein of 3T3-L1 adipocytes (UniProt P15208 28-1372, limits assumed); experiment: co-immunoprecipitation with anti-GRK2 antibody from 3T3-L1 adipocyte lysates
T1 construct: The mature receptor is made of alpha and beta chains; also called IR
T1 sequence (P15208 28-1372 limits assumed): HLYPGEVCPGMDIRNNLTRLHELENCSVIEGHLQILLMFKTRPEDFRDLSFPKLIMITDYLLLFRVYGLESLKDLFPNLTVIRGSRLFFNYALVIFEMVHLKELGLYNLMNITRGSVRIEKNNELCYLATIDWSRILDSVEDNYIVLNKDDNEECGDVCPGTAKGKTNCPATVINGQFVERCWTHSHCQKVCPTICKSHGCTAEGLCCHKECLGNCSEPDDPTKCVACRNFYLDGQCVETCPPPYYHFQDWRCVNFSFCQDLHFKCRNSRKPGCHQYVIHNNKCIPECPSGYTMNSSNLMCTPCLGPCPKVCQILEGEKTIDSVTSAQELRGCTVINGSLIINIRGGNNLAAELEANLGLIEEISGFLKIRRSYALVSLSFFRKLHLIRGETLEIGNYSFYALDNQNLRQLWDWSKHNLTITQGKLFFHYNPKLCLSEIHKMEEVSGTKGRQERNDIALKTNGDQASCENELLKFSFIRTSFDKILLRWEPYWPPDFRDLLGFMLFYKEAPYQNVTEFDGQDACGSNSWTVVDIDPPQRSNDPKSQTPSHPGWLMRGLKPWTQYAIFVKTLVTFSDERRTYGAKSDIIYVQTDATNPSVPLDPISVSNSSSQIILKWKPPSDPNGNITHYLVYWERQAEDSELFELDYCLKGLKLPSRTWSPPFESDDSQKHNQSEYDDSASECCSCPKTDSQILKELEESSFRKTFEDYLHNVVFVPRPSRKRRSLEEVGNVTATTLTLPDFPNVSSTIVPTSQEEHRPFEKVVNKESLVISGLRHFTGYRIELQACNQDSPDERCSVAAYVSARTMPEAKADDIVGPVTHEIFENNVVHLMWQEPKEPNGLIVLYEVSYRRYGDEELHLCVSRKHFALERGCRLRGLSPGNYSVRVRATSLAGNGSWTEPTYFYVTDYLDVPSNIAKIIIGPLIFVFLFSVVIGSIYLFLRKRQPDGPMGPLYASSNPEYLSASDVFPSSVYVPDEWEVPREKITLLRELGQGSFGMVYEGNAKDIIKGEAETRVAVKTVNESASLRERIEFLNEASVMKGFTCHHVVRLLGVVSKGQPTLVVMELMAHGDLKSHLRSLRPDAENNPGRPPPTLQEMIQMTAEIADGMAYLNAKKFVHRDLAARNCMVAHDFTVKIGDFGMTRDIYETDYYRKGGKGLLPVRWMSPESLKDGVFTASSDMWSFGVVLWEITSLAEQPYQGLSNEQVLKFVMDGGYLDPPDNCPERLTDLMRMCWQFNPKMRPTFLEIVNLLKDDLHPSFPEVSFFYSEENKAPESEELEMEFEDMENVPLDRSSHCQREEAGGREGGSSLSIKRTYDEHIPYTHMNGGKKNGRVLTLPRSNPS

Sequence of G protein-q/11 α-subunit (Gαq/11), endogenous protein of 3T3-L1 adipocytes (P21279 whole entry): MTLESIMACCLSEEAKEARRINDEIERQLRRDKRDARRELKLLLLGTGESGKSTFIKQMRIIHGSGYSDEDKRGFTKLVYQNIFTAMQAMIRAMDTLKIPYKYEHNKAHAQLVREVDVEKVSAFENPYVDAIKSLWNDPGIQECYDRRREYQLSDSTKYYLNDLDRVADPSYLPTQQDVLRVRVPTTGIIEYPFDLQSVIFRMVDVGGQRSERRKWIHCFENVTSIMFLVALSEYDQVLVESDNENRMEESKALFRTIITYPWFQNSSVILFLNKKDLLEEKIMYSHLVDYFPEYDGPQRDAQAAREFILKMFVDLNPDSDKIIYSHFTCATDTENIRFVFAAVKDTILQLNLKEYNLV

Molecule: deletion mutant of GRK2 lacking the RGS domain
- insulin-induced GLUT4 translocation after nuclear microinjection of the expression vector [1]: overexpression of delta-GRK2 had no effect

Molecule: kinase deficient (K220R) GRK2, overexpressed (adenovirus or plasmid vector)
- Gαq/11 tyrosine phosphorylation stimulated by ET-1 or insulin (PY20 immunoprecipitation, anti-Gαq/11 blot) [1]: both WT- and KD-GRK2 overexpression inhibited Gαq/11 tyrosine phosphorylation stimulated by ET-1 or insulin
- insulin-induced GLUT4 translocation after nuclear microinjection of the expression vector [1]: overexpression of either WT- or KD-GRK2 by nuclear microinjection inhibited insulin-induced GLUT4 translocation
- insulin-induced Gαq/11 tyrosine phosphorylation (PY20 immunoprecipitation, anti-Gαq/11 blot) [1]: overexpression of either WT- or KD-GRK2 inhibited insulin-induced Gαq/11 tyrosine phosphorylation

Molecule: wild type GRK2, overexpressed (adenovirus or plasmid vector)
- Gαq/11 tyrosine phosphorylation stimulated by ET-1 or insulin (PY20 immunoprecipitation, anti-Gαq/11 blot) [1]: both WT- and KD-GRK2 overexpression inhibited Gαq/11 tyrosine phosphorylation stimulated by ET-1 or insulin
- insulin-induced GLUT4 translocation after nuclear microinjection of the expression vector [1]: overexpression of either WT- or KD-GRK2 by nuclear microinjection inhibited insulin-induced GLUT4 translocation
- insulin-induced Gαq/11 tyrosine phosphorylation (PY20 immunoprecipitation, anti-Gαq/11 blot) [1]: overexpression of either WT- or KD-GRK2 inhibited insulin-induced Gαq/11 tyrosine phosphorylation

B1: G protein-coupled receptor kinase 2 (GRK2), endogenous protein of 3T3-L1 adipocytes (enzyme, UniProt Q99MK8 1-689, looked up)
chain: MADLEAVLADVSYLMAMEKSKATPAARASKKILLPEPSIRSVMQKYLEDRGEVTFEKIFSQKLGYLLFRDFCLNHLEEAKPLVEFYEEIKKYEKLETEEERVVRSREIFDSYIMKELLACSHPFSKNATEHVQGHLVKKQVPPDLFQPYIEEICQNLRGDVFQKFIESDKFTRFCQWKNVELNIHLTMNDFSVHRIIGRGGFGEVYGCRKADTGKMYAMKCLDKKRIKMKQGETLALNERIMLSLVSTGDCPFIVCMSYAFHTPDKLSFILDLMNGGDLHYHLSQHGVFSEADMRFYAAEIILGLEHMHNRFVVYRDLKPANILLDEHGHVRISDLGLACDFSKKRPHASVGTHGYMAPEVLQKGVAYDSSADWFSLGCMLFKLLRGHSPFRQHKTKDKHEIDRMTLTMAVELPDSFSPELRSLLEGLLQRDVNRRLGCLGRGAQEVKESPFFRSLDWQMVFLQKYPPPLIPPRGEVNAADAFDIGSFDEEDTKGIKLLDSDQELYRNFPLTISERWQQEVAETVFDTINAETDRLEARKKAKNKQLGHEEDYALGKDCIVHGYMSKMGNPFLTQWQRRYFYLFPNRLEWRGEGEAPQSLLTMEEIQSVEETQIKERKCLLLKIRGGKQFVLQCDSDPELVQWKKELRDAYREAQQLVQRVPKMKNKPRSPVVELSKVPLIQRGSANGL
notes: Precipitated from cell lysate with a rabbit polyclonal anti-GRK2 antibody; also called endogenous GRK2
- binding result [2]: no binding
